# Experimental data reported in US20030229005A1.
# Experiments:
# Test in all cases: cell-based or functional assay
# [1] = target: human Collagenase-3 (human) (UniProt P45452)
# [2] = target: human Gelatinase-A (human) (UniProt P08253)
# [3] = target: stromelysin 1 (UniProt P08254)
# Chain of stromelysin 1 (P08254 100-477 limits assumed): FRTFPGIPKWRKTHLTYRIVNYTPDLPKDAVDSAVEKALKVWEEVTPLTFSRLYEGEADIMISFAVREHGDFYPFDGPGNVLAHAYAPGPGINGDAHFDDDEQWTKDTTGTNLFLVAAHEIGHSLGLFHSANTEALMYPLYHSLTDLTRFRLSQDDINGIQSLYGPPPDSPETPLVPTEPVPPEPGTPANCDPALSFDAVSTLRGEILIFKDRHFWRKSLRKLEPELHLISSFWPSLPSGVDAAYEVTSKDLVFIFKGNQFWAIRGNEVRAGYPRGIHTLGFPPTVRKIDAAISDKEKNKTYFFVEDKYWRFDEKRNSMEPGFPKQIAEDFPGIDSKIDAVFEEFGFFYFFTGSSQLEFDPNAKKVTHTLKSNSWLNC
# Chain of human Gelatinase-A (human) (P08253 110-660 limits assumed): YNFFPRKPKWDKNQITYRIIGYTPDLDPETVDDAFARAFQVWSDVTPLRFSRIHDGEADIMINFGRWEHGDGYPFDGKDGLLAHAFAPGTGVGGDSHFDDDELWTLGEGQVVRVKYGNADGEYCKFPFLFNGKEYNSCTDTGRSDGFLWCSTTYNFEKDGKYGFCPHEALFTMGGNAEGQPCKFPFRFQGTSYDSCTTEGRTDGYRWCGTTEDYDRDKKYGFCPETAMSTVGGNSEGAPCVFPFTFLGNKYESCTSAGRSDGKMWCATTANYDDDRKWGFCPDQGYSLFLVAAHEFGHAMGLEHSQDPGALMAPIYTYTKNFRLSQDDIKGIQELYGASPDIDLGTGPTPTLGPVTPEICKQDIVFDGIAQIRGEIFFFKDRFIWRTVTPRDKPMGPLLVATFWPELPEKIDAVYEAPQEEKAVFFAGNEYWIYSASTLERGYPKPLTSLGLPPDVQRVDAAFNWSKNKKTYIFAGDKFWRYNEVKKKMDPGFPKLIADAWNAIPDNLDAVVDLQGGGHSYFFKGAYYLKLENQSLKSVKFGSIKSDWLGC
substance,measurement,setting,value
bovine type II collagen (from UniProt P02459 182-1241),"Average Percent Inhibition, 2.10-3.10 h, TypeIICOL 44 ug/ul",[1],-71%
same,"Average Percent Inhibition, 2.10-3.10 h, TypeIICOL .18 ug/ul",[1],-10%
same,"Average Percent Inhibition, 2.10-3.10 h, TypeIICOL .55 ug/ul",[1],-15%
same,"Average Percent Inhibition, 3.10-4.10 h, TypeIICOL 1.6 ug/ul",[1],-13%
same,"Average Percent Inhibition, 3.10-4.10 h, TypeIICOL 4.9 ug/ul",[1],-31%
same,"Average Percent Inhibition, 3.10-4.10 h, TypeIICOL 15 ug/ul",[1],-50%
same,"Average Percent Inhibition, 3.10-4.10 h, TypeIICOL 44 ug/ul",[1],-60%
same,"Average Percent Inhibition, 3.10-4.10 h, TypeIICOL .18 ug/ul",[1],-8%
same,"Average Percent Inhibition, 3.10-4.10 h, TypeIICOL .55 ug/ul",[1],-12%
same,"Average Percent Inhibition, 4.10-5.10 h, TypeIICOL 1.6 ug/ul",[1],-12%
same,"Average Percent Inhibition, 4.10-5.10 h, TypeIICOL 4.9 ug/ul",[1],-25%
same,"Average Percent Inhibition, 4.10-5.10 h, TypeIICOL 15 ug/ul",[1],-41%
same,"Average Percent Inhibition, 4.10-5.10 h, TypeIICOL 44 ug/ul",[1],-49%
same,"Average Percent Inhibition, 4.10-5.10 h, TypeIICOL .18 ug/ul",[1],-7%
same,"Average Percent Inhibition, 4.10-5.10 h, TypeIICOL .55 ug/ul",[1],-10%
same,"Average Percent Inhibition, 5.10-6.10 h, TypeIICOL 1.6 ug/ul",[1],-11%
same,"Average Percent Inhibition, 5.10-6.10 h, TypeIICOL 4.9 ug/ul",[1],-21%
same,"Average Percent Inhibition, 5.10-6.10 h, TypeIICOL 15 ug/ul",[1],-34%
same,"Average Percent Inhibition, 5.10-6.10 h, TypeIICOL 44 ug/ul",[1],-41%
same,"Average Percent Inhibition, 5.10-6.10 h, TypeIICOL .18 ug/ul",[1],-6%
same,"Average Percent Inhibition, 5.10-6.10 h, TypeIICOL .55 ug/ul",[1],-10%
same,"Average Percent Inhibition from 1.1 to 6.6 Hours, Type II Collagen 0.18 ug/ml",[2],2%
same,"Average Percent Inhibition from 1.1 to 6.6 Hours, Type II Collagen 0.54 ug/ml",[2],6%
same,"Average Percent Inhibition from 1.1 to 6.6 Hours, Type II Collagen 1.63 ug/ml",[2],-52%
same,"Average Percent Inhibition from 1.1 to 6.6 Hours, Type II Collagen 4.89 ug/ml",[2],32%
same,"Average Percent Inhibition from 1.1 to 6.6 Hours, Type II Collagen 14.67 ug/ml",[2],56%
same,"Average Percent Inhibition from 1.1 to 6.6 Hours, Type II Collagen 44.00 ug/ml",[2],83%
same,"Average Percent Inhibition, 0.10-1.10 h, TypeIICOL 1.6 ug/ul",[2],-27%
same,"Average Percent Inhibition, 0.10-1.10 h, TypeIICOL 4.9 ug/ul",[2],37%
same,"Average Percent Inhibition, 0.10-1.10 h, TypeIICOL 15 ug/ul",[2],56%
same,"Average Percent Inhibition, 0.10-1.10 h, TypeIICOL 44 ug/ul",[2],58%
same,"Average Percent Inhibition, 0.10-1.10 h, TypeIICOL .18 ug/ul",[2],3%
same,"Average Percent Inhibition, 0.10-1.10 h, TypeIICOL .55 ug/ul",[2],2%
same,"Average Percent Inhibition, 1.10-2.10 h, TypeIICOL 1.6 ug/ul",[2],4%
same,"Average Percent Inhibition, 1.10-2.10 h, TypeIICOL 4.9 ug/ul",[2],43%
same,"Average Percent Inhibition, 1.10-2.10 h, TypeIICOL 15 ug/ul",[2],64%
same,"Average Percent Inhibition, 1.10-2.10 h, TypeIICOL 44 ug/ul",[2],78%
same,"Average Percent Inhibition, 1.10-2.10 h, TypeIICOL .18 ug/ul",[2],9%
same,"Average Percent Inhibition, 1.10-2.10 h, TypeIICOL .55 ug/ul",[2],11%
same,"Average Percent Inhibition, 2.10-3.10 h, TypeIICOL 1.6 ug/ul",[2],-11%
same,"Average Percent Inhibition, 2.10-3.10 h, TypeIICOL 4.9 ug/ul",[2],46%
same,"Average Percent Inhibition, 2.10-3.10 h, TypeIICOL 15 ug/ul",[2],70%
same,"Average Percent Inhibition, 2.10-3.10 h, TypeIICOL 44 ug/ul",[2],86%
same,"Average Percent Inhibition, 2.10-3.10 h, TypeIICOL .18 ug/ul",[2],7%
same,"Average Percent Inhibition, 2.10-3.10 h, TypeIICOL .55 ug/ul",[2],12%
same,"Average Percent Inhibition, 3.10-4.10 h, TypeIICOL 1.6 ug/ul",[2],-37%
same,"Average Percent Inhibition, 3.10-4.10 h, TypeIICOL 4.9 ug/ul",[2],37%
same,"Average Percent Inhibition, 3.10-4.10 h, TypeIICOL 15 ug/ul",[2],64%
same,"Average Percent Inhibition, 3.10-4.10 h, TypeIICOL 44 ug/ul",[2],87%
same,"Average Percent Inhibition, 3.10-4.10 h, TypeIICOL .18 ug/ul",[2],3%
same,"Average Percent Inhibition, 3.10-4.10 h, TypeIICOL .55 ug/ul",[2],8%
same,"Average Percent Inhibition, 4.10-5.10 h, TypeIICOL 1.6 ug/ul",[2],-68%
same,"Average Percent Inhibition, 4.10-5.10 h, TypeIICOL 4.9 ug/ul",[2],27%
same,"Average Percent Inhibition, 4.10-5.10 h, TypeIICOL 15 ug/ul",[2],53%
same,"Average Percent Inhibition, 4.10-5.10 h, TypeIICOL 44 ug/ul",[2],85%
same,"Average Percent Inhibition, 4.10-5.10 h, TypeIICOL .18 ug/ul",[2],0%
same,"Average Percent Inhibition, 4.10-5.10 h, TypeIICOL .55 ug/ul",[2],4%
same,"Average Percent Inhibition, 5.10-6.10 h, TypeIICOL 1.6 ug/ul",[2],-104%
same,"Average Percent Inhibition, 5.10-6.10 h, TypeIICOL 4.9 ug/ul",[2],19%
same,"Average Percent Inhibition, 5.10-6.10 h, TypeIICOL 15 ug/ul",[2],41%
same,"Average Percent Inhibition, 5.10-6.10 h, TypeIICOL 44 ug/ul",[2],82%
same,"Average Percent Inhibition, 5.10-6.10 h, TypeIICOL .18 ug/ul",[2],-3%
same,"Average Percent Inhibition, 5.10-6.10 h, TypeIICOL .55 ug/ul",[2],-1%
same,"Average Percent Inhibition from 1.1 to 6.6 Hours, Type II Collagen 0.18 ug/ml",[3],15%
same,"Average Percent Inhibition from 1.1 to 6.6 Hours, Type II Collagen 0.54 ug/ml",[3],13%
same,"Average Percent Inhibition from 1.1 to 6.6 Hours, Type II Collagen 1.63 ug/ml",[3],19%
same,"Average Percent Inhibition from 1.1 to 6.6 Hours, Type II Collagen 4.89 ug/ml",[3],12%
same,"Average Percent Inhibition from 1.1 to 6.6 Hours, Type II Collagen 14.67 ug/ml",[3],18%
same,"Average Percent Inhibition from 1.1 to 6.6 Hours, Type II Collagen 44.00 ug/ml",[3],19%
same,"Average Percent Inhibition, 0.10-1.10 h, TypeIICOL 1.6 ug/ul",[3],-10%
same,"Average Percent Inhibition, 0.10-1.10 h, TypeIICOL 4.9 ug/ul",[3],50%
same,"Average Percent Inhibition, 0.10-1.10 h, TypeIICOL 15 ug/ul",[3],57%
same,"Average Percent Inhibition, 0.10-1.10 h, TypeIICOL 44 ug/ul",[3],62%
same,"Average Percent Inhibition, 0.10-1.10 h, TypeIICOL .18 ug/ul",[3],22%
same,"Average Percent Inhibition, 0.10-1.10 h, TypeIICOL .55 ug/ul",[3],43%
same,"Average Percent Inhibition, 1.10-2.10 h, TypeIICOL 1.6 ug/ul",[3],24%
same,"Average Percent Inhibition, 1.10-2.10 h, TypeIICOL 4.9 ug/ul",[3],23%
same,"Average Percent Inhibition, 1.10-2.10 h, TypeIICOL 15 ug/ul",[3],28%
same,"Average Percent Inhibition, 1.10-2.10 h, TypeIICOL 44 ug/ul",[3],32%
same,"Average Percent Inhibition, 1.10-2.10 h, TypeIICOL .18 ug/ul",[3],22%
same,"Average Percent Inhibition, 1.10-2.10 h, TypeIICOL .55 ug/ul",[3],26%
same,"Average Percent Inhibition, 2.10-3.10 h, TypeIICOL 1.6 ug/ul",[3],22%
same,"Average Percent Inhibition, 2.10-3.10 h, TypeIICOL 4.9 ug/ul",[3],11%
same,"Average Percent Inhibition, 2.10-3.10 h, TypeIICOL 15 ug/ul",[3],18%
same,"Average Percent Inhibition, 2.10-3.10 h, TypeIICOL 44 ug/ul",[3],18%
same,"Average Percent Inhibition, 2.10-3.10 h, TypeIICOL .18 ug/ul",[3],15%
same,"Average Percent Inhibition, 2.10-3.10 h, TypeIICOL .55 ug/ul",[3],14%
same,"Average Percent Inhibition, 3.10-4.10 h, TypeIICOL 1.6 ug/ul",[3],18%
same,"Average Percent Inhibition, 3.10-4.10 h, TypeIICOL 4.9 ug/ul",[3],8%
same,"Average Percent Inhibition, 3.10-4.10 h, TypeIICOL 15 ug/ul",[3],14%
same,"Average Percent Inhibition, 3.10-4.10 h, TypeIICOL 44 ug/ul",[3],14%
same,"Average Percent Inhibition, 3.10-4.10 h, TypeIICOL .18 ug/ul",[3],12%
same,"Average Percent Inhibition, 3.10-4.10 h, TypeIICOL .55 ug/ul",[3],10%
same,"Average Percent Inhibition, 4.10-5.10 h, TypeIICOL 1.6 ug/ul",[3],17%
same,"Average Percent Inhibition, 4.10-5.10 h, TypeIICOL 4.9 ug/ul",[3],8%
same,"Average Percent Inhibition, 4.10-5.10 h, TypeIICOL 15 ug/ul",[3],13%
same,"Average Percent Inhibition, 4.10-5.10 h, TypeIICOL 44 ug/ul",[3],14%
same,"Average Percent Inhibition, 4.10-5.10 h, TypeIICOL .18 ug/ul",[3],12%
same,"Average Percent Inhibition, 4.10-5.10 h, TypeIICOL .55 ug/ul",[3],8%
same,"Average Percent Inhibition, 5.10-6.10 h, TypeIICOL 1.6 ug/ul",[3],16%
same,"Average Percent Inhibition, 5.10-6.10 h, TypeIICOL 4.9 ug/ul",[3],8%
same,"Average Percent Inhibition, 5.10-6.10 h, TypeIICOL 15 ug/ul",[3],14%
same,"Average Percent Inhibition, 5.10-6.10 h, TypeIICOL 44 ug/ul",[3],14%
same,"Average Percent Inhibition, 5.10-6.10 h, TypeIICOL .18 ug/ul",[3],12%
same,"Average Percent Inhibition, 5.10-6.10 h, TypeIICOL .55 ug/ul",[3],8%
